B1: StrepII-ABI1 (enzyme, Arabidopsis thaliana, UniProt P49597 1-434, looked up)
chain: MEEVSPAIAGPFRPFSETQMDFTGIRLGKGYCNNQYSNQDSENGDLMVSLPETSSCSVSGSHGSESRKVLISRINSPNLNMKESAAADIVVVDISAGDEINGSDITSEKKMISRTESRSLFEFKSVPLYGFTSICGRRPEMEDAVSTIPRFLQSSSGSMLDGRFDPQSAAHFFGVYDGHGGSQVANYCRERMHLALAEEIAKEKPMLCDGDTWLEKWKKALFNSFLRVDSEIESVAPETVGSTSVVAVVFPSHIFVANCGDSRAVLCRGKTALPLSVDHKPDREDEAARIEAAGGKVIQWNGARVFGVLAMSRSIGDRYLKPSIIPDPEVTAVKRVKEDDCLILASDGVWDVMTDEEACEMARKRILLWHKKNAVAGDASLLADERRKEGKDPAAMSAAEYLSKLAIQRGSKDNISVVVVDLKPRRKLKSKPLN
notes: ABI1, type 2C protein phosphatase, Arabidopsis thaliana; also called Strep-II tagged ABI1; source: E. coli Rosetta (DE3) pLysS, purified (Strep-Tactin resin); not shown: Strep-II, N-terminal, kept
B2: StrepII-ROP11 (natural protein)
chain: not shown
notes: ROP11, ROP/RAC small GTPase, Arabidopsis thaliana; also called Strep-II tagged ROP11; source: E. coli Rosetta (DE3) pLysS, purified (Strep-Tactin resin); not shown: Strep-II, N-terminal, kept

Target: T1, GST-GEF1 (Arabidopsis thaliana, UniProt Q93ZY2 1-548)
T1 construct: RopGEF1 (GEF1), Arabidopsis thaliana; also called GST-tagged GEF1; GST-RopGEF1; source: E. coli Rosetta (DE3) pLysS, purified (Glutathione Sepharose); not shown: GST, N-terminal, kept
T1 sequence (looked up): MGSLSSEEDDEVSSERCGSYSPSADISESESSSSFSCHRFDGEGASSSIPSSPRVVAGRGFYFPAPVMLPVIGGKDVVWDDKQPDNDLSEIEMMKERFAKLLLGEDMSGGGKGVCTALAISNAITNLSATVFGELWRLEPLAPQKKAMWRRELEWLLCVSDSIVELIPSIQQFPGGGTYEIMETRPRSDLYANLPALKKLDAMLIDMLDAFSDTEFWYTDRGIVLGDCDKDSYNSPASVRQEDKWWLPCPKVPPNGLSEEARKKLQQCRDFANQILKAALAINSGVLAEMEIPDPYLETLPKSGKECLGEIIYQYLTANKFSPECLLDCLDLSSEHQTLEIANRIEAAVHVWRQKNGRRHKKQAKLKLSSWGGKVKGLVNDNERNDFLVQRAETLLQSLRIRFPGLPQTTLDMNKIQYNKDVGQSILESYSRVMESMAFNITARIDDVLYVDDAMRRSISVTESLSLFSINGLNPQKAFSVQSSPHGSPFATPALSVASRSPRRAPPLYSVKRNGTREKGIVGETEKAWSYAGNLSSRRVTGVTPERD
Experiment: pull-down; GST-GEF1 on Glutathione Sepharose beads as bait, StrepII-tagged input proteins; bound proteins detected by blot for Strep-II
Settings: both partners purified

Row | Binder | binding result
1 | B1 | binds
2 | B2 | binds
